Experimental data taken from patent publication US11267868 (dated 2022).
Numbering of substitutions follows the chain as printed.

B1: IL6R-P631/IL6R-L (antibody)
chain 1: QVQLQESGPGLVKPSETLSLTCAVSGHSISHDHAWSWVRQPPGEGLEWIGFISYSGITNYNPSLQGRVTISRDNSKNTLYLQMNSLRAEDTAVYYCARSLARTTAMDYWGEGTLVTVSSASTKGPSVFPLAPSSKSTSGGTAALGCLVKDYFPEPVTVSWNSGALTSGVHTFPAVLQSSGLYSLSSVVTVPSSSLGTQTYICNVNHKPSNTKVDKKVEPKSCDKTHTCPPCPAPDLLGGDSVFLFPPKPKDTLMISRTPEVTCVVINVAEEDGEVKFNWYVDGVEVHNAKTKPREEQYNSTYRVVSVLTVLHQDWLNGKEYKCKVSNKALPAPIEKTISKAKGQPREPQVYTLPPSRDELTKNQVSLTCLVKGFYPSDIAVEWESNGQPENNYKTTPPVLDSDGSFFLYSKLTVDKSRWQQGNVFSCSVMHEALHNHYTQKSLSLSP
chain 2: not shown
B2: IL6R-P625/IL6R-L (antibody)
chain 1: B1 chain 1 with L236K, N267D
chain 2: not shown
B3: IL6R-P636/IL6R-L (antibody)
chain 1: B1 chain 1 with N267D, A269R
chain 2: not shown
B4: IL6R-P665/IL6R-L (antibody)
chain 1: B1 chain 1 with G239D, N267D, Y298D, N299A, A332R, P398M
chain 2: not shown
B5: IL6R-P629/IL6R-L (antibody)
chain 1: B1 chain 1 with G239K, N267D
chain 2: not shown
B6: IL6R-P626/IL6R-L (antibody)
chain 1: B1 chain 1 with L236R, N267D
chain 2: not shown
B7: IL6R-P652/IL6R-L (antibody)
chain 1: B1 chain 1 with G239D, N267D, A269Y, Y298D, A332R, P398M
chain 2: not shown
B8: IL6R-P587/IL6R-L (antibody)
chain 1: B1 chain 1 with N267D
chain 2: not shown
B9: VH3/L(WT)-mIgG1 (antibody)
chain 1: QVQLQESGPGLVKPSETLSLTCAVSGHSISHDHAWSWVRQPPGEGLEWIGFISYSGITNYNPSLQGRVTISRDNSKNTLYLQMNSLRAEDTAVYYCARSLARTTAMDYWGEGTLVTVSSAKTTPPSVYPLAPGSAAQTNSMVTLGCLVKGYFPEPVTVTWNSGSLSSGVHTFPAVLQSDLYTLSSSVTVPSSTWPSETVTCNVAHPASSTKVDKKIVPRDCGCKPCICTVPEVSSVFIFPPKPKDVLTITLTPKVTCVVVDISKDDPEVQFSWFVDDVEVHTAQTQPREEQFNSTFRSVSELPIMHQDWLNGKEFKCRVNSAAFPAPIEKTISKTKGRPKAPQVYTIPPPKEQMAKDKVSLTCMITDFFPEDITVEWQWNGQPAENYKNTQPIMDTDGSYFVYSKLNVQKSNWEAGNTFTCSVLHEGLHNHHTEKSLSHSPGK
chain 2: not shown
B10: IL6R-P577/IL6R-L (antibody)
chain 1: B1 chain 1 with G239D, N267D, Y298D, A332R, P398M
chain 2: not shown
B11: IL6R-P702/IL6R-L (antibody)
chain 1: B1 chain 1 with F243M, N267D, A269R
chain 2: not shown
B12: IL6R-P699/IL6R-L (antibody)
chain 1: B1 chain 1 with N267D, A269R, E270P
chain 2: not shown
B13: IL6R-P712/IL6R-L (antibody)
chain 1: B1 chain 1 with N267D, A269R, E270P, Y298E
chain 2: not shown
B14: IL6R-P694/IL6R-L (antibody)
chain 1: B1 chain 1 with N267D, A269R, Y298E
chain 2: not shown
B15: IL6R-P730/IL6R-L (antibody)
chain 1: B1 chain 1 with G239Q, N267D, A269R, E270P, Y298E
chain 2: not shown

Biological target: T1, FcgRIIb (human, UniProt P31994)
T1 chain: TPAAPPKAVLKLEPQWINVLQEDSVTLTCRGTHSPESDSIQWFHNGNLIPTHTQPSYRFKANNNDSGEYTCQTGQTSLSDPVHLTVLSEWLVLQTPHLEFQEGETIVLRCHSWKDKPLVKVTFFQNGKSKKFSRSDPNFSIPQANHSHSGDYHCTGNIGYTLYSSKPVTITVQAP
Assay: SPR

Going from B1 to B2, the Kd falls from 4.4 µM to 1.7 µM (2.6-fold). The second binds more tightly here.

B3 and B4 are within 1.5-fold of each other in Kd: 2.9 µM for the first, 3.2 µM for the second.

Compared with B5, B6 is 4.2-fold higher in Kd: 0.65 µM for the first, 2.7 µM for the second.

With B7 the Kd was 1.2 µM.

Biological target: T2, FcgRIIaH (human, UniProt P12318)
T2 chain: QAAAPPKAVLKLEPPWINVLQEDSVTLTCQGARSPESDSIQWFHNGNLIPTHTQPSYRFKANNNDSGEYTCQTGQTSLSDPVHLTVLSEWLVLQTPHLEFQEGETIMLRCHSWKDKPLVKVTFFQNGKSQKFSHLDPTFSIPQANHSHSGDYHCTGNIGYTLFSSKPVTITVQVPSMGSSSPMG
Assay: SPR

B8 showed a Kd of 14 µM.

Biological target: T3, mFcgRIV (mouse, UniProt A0A0B4J1G0)
T3 chain: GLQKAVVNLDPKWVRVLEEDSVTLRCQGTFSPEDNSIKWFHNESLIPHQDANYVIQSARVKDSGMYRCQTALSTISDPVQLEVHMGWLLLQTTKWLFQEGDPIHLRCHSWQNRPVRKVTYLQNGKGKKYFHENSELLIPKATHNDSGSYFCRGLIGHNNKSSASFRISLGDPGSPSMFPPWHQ
Assay: SPR

B9: no binding.

Biological target: T4, FcgRIIIaV (human, UniProt P08637)
T4 sequence (P08637 17-208 F176V): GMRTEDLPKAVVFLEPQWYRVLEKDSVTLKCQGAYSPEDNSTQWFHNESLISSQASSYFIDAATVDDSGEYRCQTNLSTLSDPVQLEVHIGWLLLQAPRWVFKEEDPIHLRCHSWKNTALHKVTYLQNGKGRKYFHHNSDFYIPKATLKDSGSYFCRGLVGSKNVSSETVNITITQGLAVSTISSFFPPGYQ
Assay: SPR

Going from B8 to B10, the Kd falls from 28 µM to 12 µM (2.3-fold).

Biological target: T5, FcgRIa (human, UniProt P12314)
T5 chain: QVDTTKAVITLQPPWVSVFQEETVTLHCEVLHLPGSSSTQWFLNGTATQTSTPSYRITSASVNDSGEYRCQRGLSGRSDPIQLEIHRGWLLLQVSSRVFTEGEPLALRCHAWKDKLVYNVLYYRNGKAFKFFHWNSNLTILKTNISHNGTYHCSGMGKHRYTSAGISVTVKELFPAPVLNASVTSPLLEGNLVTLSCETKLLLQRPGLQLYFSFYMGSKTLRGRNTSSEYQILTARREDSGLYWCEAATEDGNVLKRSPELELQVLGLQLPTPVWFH
Assay: SPR

For B8, the Kd was 0.00021 µM.

Biological target: T5, FcgRIa
Assay: SPR
Remark: another data set of the same source

B11 and B12 are within 1.5-fold of each other in Kd: 0.57 µM for the first, 0.69 µM for the second.

Compared with B13, B14 is 1.7-fold lower in Kd: 0.68 µM for the first, 0.41 µM for the second. The second binds more tightly here.

Work on B15 yielded a Kd of 1.5 µM.

Biological target: T1, FcgRIIb
Assay: SPR
Remark: another data set of the same source

Compared with B8, B10 is 12-fold lower in Kd: 0.015 µM for the first, 0.0012 µM for the second. The second binds more tightly here.

Biological target: T4, FcgRIIIaV
Assay: SPR
Remark: another data set of the same source

For B8, the Kd was 32 µM.

Biological target: T4, FcgRIIIaV
Assay: SPR
Remark: another data set of the same source

B11 and B12 are within 1.5-fold of each other in Kd: 44 µM for the first, 65 µM for the second.

First: B13
Second: B14
The Kd of the first is 1.7-fold higher: 82 µM for the first, 47 µM for the second. The second binds more tightly here.

Work on B15 yielded a Kd of 73 µM.

Biological target: T6, FcgRIIaR (human, UniProt P12318)
T6 chain: T2 chain with H134R
Assay: SPR

B11 and B12 are within 1.5-fold of each other in Kd: 54 µM for the first, 57 µM for the second.

B13 and B14 are within 1.5-fold of each other in Kd: 71 µM for the first, 61 µM for the second.

B15 showed a Kd of 95 µM.

Biological target: T6, FcgRIIaR
Assay: SPR
Remark: another data set of the same source

For B8, the Kd was 1.2 µM.

Biological target: T1, FcgRIIb
Assay: SPR
Remark: another data set of the same source

Binder B8 has a Kd of 0.028 µM.

Biological target: T6, FcgRIIaR
Assay: SPR
Remark: another data set of the same source

Going from B8 to B10, the Kd falls from 0.71 µM to 0.044 µM (16-fold).

Biological target: T2, FcgRIIaH
Assay: SPR
Remark: another data set of the same source

B11 and B12 are within 1.5-fold of each other in Kd: 170 µM for the first, 250 µM for the second.

First: B13
Second: B14
The Kd of the first is 1.5-fold higher: 300 µM for the first, 200 µM for the second. The second binds more tightly here.

Binder B15 has a Kd of 310 µM.

Biological target: T2, FcgRIIaH
Assay: SPR
Remark: another data set of the same source

Compared with B1, B2 is 1.9-fold higher in Kd: 96 µM for the first, 180 µM for the second. The first binds more tightly here.

Compared with B3, B4 is 2.6-fold higher in Kd: 170 µM for the first, 450 µM for the second.

Going from B5 to B6, the Kd rises from 100 µM to 200 µM (2-fold). The first binds more tightly here.

For B7, the Kd was 170 µM.

Biological target: T2, FcgRIIaH
Assay: SPR
Remark: another data set of the same source

Compared with B8, B10 is 12-fold lower in Kd: 12 µM for the first, 1 µM for the second.

Biological target: T5, FcgRIa
Assay: SPR
Remark: another data set of the same source

First: B1
Second: B2
The Kd of the first is 45-fold lower: 0.011 µM for the first, 0.5 µM for the second. The first binds more tightly here.

Compared with B3, B4 is 4.1-fold higher in Kd: 0.46 µM for the first, 1.9 µM for the second.

Going from B5 to B6, the Kd rises from 0.0033 µM to 0.74 µM (220-fold).

Work on B7 yielded a Kd of 0.72 µM.

Biological target: T5, FcgRIa
Assay: SPR
Remark: another data set of the same source

For B8, the Kd was 0.00071 µM.

Biological target: T1, FcgRIIb
Assay: SPR
Remark: another data set of the same source

B11 and B12 are within 1.5-fold of each other in Kd: 4 µM for the first, 4.1 µM for the second.

B13 and B14 are within 1.5-fold of each other in Kd: 3.4 µM for the first, 2.8 µM for the second.

For B15, the Kd was 10 µM.

Biological target: T6, FcgRIIaR
Assay: SPR
Remark: another data set of the same source

B1 and B2 are within 1.5-fold of each other in Kd: 26 µM for the first, 24 µM for the second.

B3 and B4 are within 1.5-fold of each other in Kd: 54 µM for the first, 49 µM for the second.

B5 and B6 are within 1.5-fold of each other in Kd: 27 µM for the first, 31 µM for the second.

For B7, the Kd was 24 µM.

Biological target: T7, mFcgRI (mouse, UniProt P26151)
T7 chain: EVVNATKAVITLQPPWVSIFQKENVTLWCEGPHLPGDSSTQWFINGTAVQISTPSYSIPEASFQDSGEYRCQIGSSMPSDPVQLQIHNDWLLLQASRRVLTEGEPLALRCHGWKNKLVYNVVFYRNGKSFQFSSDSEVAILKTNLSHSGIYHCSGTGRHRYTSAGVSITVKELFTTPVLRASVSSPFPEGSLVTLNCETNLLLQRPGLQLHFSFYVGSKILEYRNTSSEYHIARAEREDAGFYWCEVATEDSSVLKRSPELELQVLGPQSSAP
Assay: SPR

B9: no binding.

Biological target: T4, FcgRIIIaV
Assay: SPR
Remark: another data set of the same source

B1 and B2 are within 1.5-fold of each other in Kd: 47 µM for the first, 66 µM for the second.

B3 and B4 are within 1.5-fold of each other in Kd: 45 µM for the first, 67 µM for the second.

Compared with B5, B6 is 1.6-fold higher in Kd: 47 µM for the first, 75 µM for the second. The first binds more tightly here.

For B7, the Kd was 72 µM.
